Results from publication PMC3776922.

Target: LAT-1(37-542)^GPS(T530A)::6xHis (C. elegans)
Test: AUC; sedimentation equilibrium of the dimer fraction of the LAT-1 ectodomain; 20 uM - 60 uM protein, native conditions in PBS, 20°C / room temperature, 48 hr at 17,000 and 20,000 rpm, ideal monodisperse model

- stoichiometry N: 2
Substance: LAT-1(37-542)^GPS(T530A)::6xHis (domain or fragment)
